Data as given in patent US5691312A, “Pharmaceutical for subcutaneous or intramuscular administration containing polypeptides” (Behringwerke Aktiengesellschaft, priority 1989, dated 1997).

Tests used:
[1] = additive for sc or im administration of proteins; WO 86/06962 and EP-A-0,292,908; cited from earlier work
[2] = Bioavailability and/or tolerability of polypeptides administered sc or im with added amino acid (general statements); assay type: in vivo, rats or rabbits; settings: amino acid additives, sc or im administration
Procedure: (§1) Each ml of the thawed solutions from Example 1 was administered sc and im (femoral biceps) in animals (rats or rabbits). In the case of im administration, the total volume of 1 ml was divided between four types of injection.
(§2) After 0, 15, 30, 60, 120, 180, 240 and 340 minutes (r-t-PA mutant) or 0, 30, 60, 120, 180, 240, 300, 360, 420 and 450 minutes (r-t-PA, hirudin, urokinase AT III, F XIII, von Willebrand, EPO, PP4), blood samples (+ citrate) were taken. The blood samples were then immediately centrifuged and the resulting citrate plasma was frozen at -20° C. until the determination. The plasma concentration of the test substance was measured as follows:
(§3) The area under the curve (AUC) was then calculated. This value is an expression of the bioavailability and makes possible comparison between the different presentation forms.

[3] = Hemorrhages at the administration site, hirudin; assay type: in vivo, rat
Procedure: as §1
(§4) Number of animals with hemorrhages

[4] = Hemorrhages at the administration site, urokinase; assay type: in vivo, rabbit; settings: for Number of animals with hemorrhages: 0.05 M tris, 5 mg/kg
Procedure: as §1, §4

[5] = Death of animals after sc/im administration; assay type: in vivo; settings: buffer 5 (0.05 M tris, 0.1 M NaCl pH 7.5, 0.1% Tween 80, 50 mg/ml hydroxylamine), rat, 3.3/8.2 mg/kg
Procedure: as §1

[6] = Bioavailability of t-PA in the rat (plasma concentration by ELISA, AUC); assay type: in vivo; settings: n=2, 3.3/8.2 mg/kg
Procedure: Each ml of the thawed solutions from Example 1 was administered sc and im (femoral biceps) in animals (rats or rabbits). In the case of im administration, the total volume of 1 ml was divided between four types of injection. […]
as §2
r-t-PA ELISA (Biopool, Sweden)
as §3
I. Bioavailability of t-PA in the rat

[7] = presentation form according to the invention versus customary presentation forms

NO [hydroxylamine]
tolerability [1]: limited tolerability

CN [methylamine]
tolerability [1]: limited tolerability

EPO: r-erythropoietin (EPO); 1 mg of EPO corresponds to 80,000 U of EPO antigen
influence on the bioavailability and/or improvement in the tolerability [2]: favorable influence

F XIII: F XIII (Fibrogammin) obtained from Behringwerke
influence on the bioavailability and/or improvement in the tolerability [2]: favorable influence

Hirudin
influence on the bioavailability and/or improvement in the tolerability [2]: favorable influence | Number of animals with hemorrhages ([3]; 0.05 M tris, 0.1 M NaCl, im, 10 mg/kg): 3/3 | animal died as a result of the hemorrhages ([3]; 0.05 M tris, 0.1 M NaCl, im, 10 mg/kg, of 3 animals): 1 animal | Number of animals with hemorrhages ([3]; 0.05 M tris, 0.1 M NaCl, sc, 10 mg/kg): 2/3 | Number of animals with hemorrhages ([3]; 0.2 M arginine, 0.2 M lysine pH 7.5, im, 10 mg/kg): 0/3 | Number of animals with hemorrhages ([3]; 0.2 M arginine, 0.2 M lysine pH 7.5, sc, 10 mg/kg): 0/3 | hemorrhages at the administration site on sc and im administration [3, 7]: distinctly less

PP4: PP4 (placenta protein 4) prepared by the process of EP 0,123,307
influence on the bioavailability and/or improvement in the tolerability [2]: favorable influence

Urokinase
influence on the bioavailability and/or improvement in the tolerability [2]: favorable influence | Number of animals with hemorrhages ([4]; 0.1 M NaCl pH 7.5, im): 2/3 | Number of animals with hemorrhages ([4]; 0.1 M NaCl pH 7.5, sc): 2/3 | hemorrhages at the administration site on sc and im administration [4, 7]: distinctly less

antithrombin III
influence on the bioavailability and/or improvement in the tolerability [2]: favorable influence

t-PA: r-t-PA (Actilyse) purchased from Boehringer Ingelheim; tissue plasminogen activator
animals died ([5]; im): all animals died | animals died ([5]; sc): all animals died | influence on the bioavailability and/or improvement in the tolerability [2]: favorable influence | AUC + Variation (%) ([6]; buffer 1 (0.05 M tris, 0.1 M NaCl), im): 358 ± 10% | AUC + Variation (%) ([6]; buffer 1 (0.05 M tris, 0.1 M NaCl), sc): 36 ± 13% | AUC + Variation (%) ([6]; buffer 2 (idem buffer 1, pH 4.5), im): 386 ± 2% | AUC + Variation (%) ([6]; buffer 2 (idem buffer 1, pH 4.5), sc): 53 ± 14% | AUC + Variation (%) ([6]; buffer 3 (0.2 M arginine, 0.2 M lysine pH 7.5), im): 756 ± 2% | AUC + Variation (%) ([6]; buffer 3 (0.2 M arginine, 0.2 M lysine pH 7.5), sc): 423 ± 3% | AUC + Variation (%) ([6]; buffer 4 (0.2 M arginine, 0.2 M lysine pH 4.5), im): 669 ± 17% | AUC + Variation (%) ([6]; buffer 4 (0.2 M arginine, 0.2 M lysine pH 4.5), sc): 382 ± 11% | AUC + Variation (%) ([6]; buffer 7 (0.05 M tris, 0.1 M NaCl pH 7.5, 0.1% Tween 80, 3% dimethyl sulfoxide), im): 184 ± 18% | AUC + Variation (%) ([6]; buffer 7 (0.05 M tris, 0.1 M NaCl pH 7.5, 0.1% Tween 80, 3% dimethyl sulfoxide), sc): 87 ± 12% | AUC + Variation (%) ([6]; buffer 8 (0.2 M arginine pH 7.5), im): 600 ± 4% | AUC + Variation (%) ([6]; buffer 8 (0.2 M arginine pH 7.5), sc): 320 ± 2% | AUC + Variation (%) ([6]; buffer 9 (0.2 M lysine pH 7.5), im): 610 ± 10% | AUC + Variation (%) ([6]; buffer 9 (0.2 M lysine pH 7.5), sc): 290 ± 11%

von Willebrand factor: prepared by the process of DE 3,904,354 (1 mg of vW corresponds to 100 U of vW antigen)
influence on the bioavailability and/or improvement in the tolerability [2]: favorable influence
